{"source": "paper PMC11404848", "about": "(2024)", "target": "Sensor^BtsK (Stenotrophomonas maltophilia CGMCC …, labelled with the Monolith NT.115 Protein Labeling Kit Red NHS (a dye that reacts with amines))", "test": "MST", "data": [{"binder": "BtsD^Δ(SP-GGDEF) (domain or fragment) APPLRDYAIDVWTSRNGLPHNSLRDIAQTPEGHLWFATWEGLVRYNGLDFTVFDRSTRPGLRDNGIGALLVDRQGGLWISDSRGNVSHRGNDGQWRVWEHQADTPQVLIQSMQMDSQGRLWLLYEGKGIGYLTPDKGIVYQAPAADLPMAMSFTKLVVDAQDRVWVGTLDGLVLRDNDGVLKRAPAAWGLGAGTGLSWPYRAPDGALWIVAGERLYRVEDDQLVLVHRLPGQLHMTSMLQDRHGDLWLGTENQGLLRISAHGLERLPAGLNLPGGRVVSLREDAEGSIWVGANGGLYRLRETLFSSYTERDGLSGDYVRTVLEDRDRQLWVGSASGLDLQTPDGRFRAVPLHNRGGKAPSVLSLAQGPDGDLWVGTFGDGVYRLDRDGSLRHNYAAADGMPGGNIRAISVDPQGRVWAGTQKGVVRIDGDRVQVSTAPGMPGGLITALEHDHQGNLWIGTIEGIRVLRGDHVQSIDLAPMGGGRSVFGFHQLGEAMWISSDRGLYRWRDGKLARVGLEQGMPVDAVFQLVPDRLGNVWISSNRGVLRTDMATLNAVADGRAPRVVVERYNEIDGMANAQANGSSGPSAILRQDGTFWVVTAGGLSTVDPQRLQRFRERPSPPAAIESVQVDGAPVHWEGPDRNYIPGGRRLAVSYVGLSYLMSDRIRYRTRLEGLDAGWVERGPQRSVEFVGLPPGDYTLHVSAAHPGGAWGQQEAVWSFTVEPFWWQRRSVQLLGGLLLLAGLVVLYRLLLQQLKASNLRLARRVDEATFDLQAKTVHLQALNQEKTELAER", "values": [{"measurement": "Kd", "value": 3.17, "unit": "µM"}]}]}
